# In US20260055143A1, “HIGH AFFINITY VARIANTS OF SH2 DOMAINS” (Axoiya Inc., priority 2023, published 2026):
# Molecular target: pTyr-containing peptide (pEZ) derived from Ezrin, PPV{pTyr}EPVS
# Experiment: fluorescence polarization; the wt is the reference
row,Substance,Fold Change [fold]
1,"Fes SH2 domain, wild type (Fes^wt) (from UniProt P07332 460-549)",1

# Molecular target: Phosphopeptide PPPT{pTyr}TEVDP
# Experiment: competitive ELISA, soluble phosphopeptide titrated against the immobilized peptide
row,Substance,IC50 [nM]
1,Ptn11_C^sFes/αA-2-Arg (designed binder),1100

# Molecular target: Phosphopeptide KQVE{pTyr}LDLDLD
# Experiment: as above
row,Substance,IC50 [nM]
1,"Ptn11_N^αA-2-Arg, Ptn11_N SH2 domain with the αA-2 position mutated to Arg (designed binder)",14

# Molecular target: pMT peptide EEPQ{pTyr}EEIPIY
# Experiment: competitive phage ELISA (IC50), soluble pMT peptide against the immobilized peptide
row,Substance,fold enhancement of affinity over wt [fold]
1,"Src^sFes, Src SH2 domain with the sFes superbinder motif grafted (designed binder)",125

# Molecular target: phosphopeptide
# Experiment: competition binding
row,Substance,IC50 [nM]
1,Nck1 sSrc,100
2,Crkl sSrc,27
3,Blk sFes,940
4,Grb2 sSrc,11
5,Abl1 sFes,120
6,P85A_N sFes,0.9
7,Btk wt,> 20000
8,P85B_N wt,> 20000
9,Lck sFes,70
10,Lck wt,360
11,Btk sSrc,810
12,Grb2 wt,560
13,P85A_N sSrc,2300
14,Grb2 sFes,90
15,Vav sSrc,950
16,P85B_N sSrc,> 20000
17,Vav2 sSrc,872
18,Shc1 sSrc,7200
19,Crkl wt,3100

row,Substance,IC50 [nM]
1,Lck sSrc,12
2,Vav2 sFes,> 20000
3,Vav2 wt,> 20000
4,Abl1 wt,1600
5,Nck1 wt,2000
6,P55G_N sFes,1900
7,Src sSrc,19
8,Blk wt,> 20000
9,Blk sSrc,110
10,Shc1 wt,> 20000
11,Abl1 sSrc,290
12,Vav3 wt,> 20000
13,P85A_N wt,540
14,P85B_N sFes,220
15,Vav wt,> 20000
16,Nck1 sFes,> 20000
17,Btk sFes,1100
18,Shc1 sFes,> 20000

# Molecular target: pTyr-containing peptide (pEZ) derived from Ezrin, PPV{pTyr}EPVS
# Experiment: competitive phage ELISA (IC50), soluble Ezrin phosphopeptide against the immobilized peptide
row,Substance,fold enhancement of affinity over wt [fold]
1,"Fes^sSrc, Fes SH2 domain with the sSrc superbinder motif grafted (designed binder)",650

# Molecular target: pTyr-containing peptide (pEZ) derived from Ezrin, PPV{pTyr}EPVS
# Experiment: fluorescence polarization, purified SH2 domain with fluorescein-labelled ezrin phosphopeptide
row,Substance,IC50 [nM]
1,"Fes SH2 domain, wild type (Fes^wt) (from UniProt P07332 460-549)",1300
